According to paper PMC2666983:

Biological target: T1, Ci-FoxA-a (Ci-Fkh/HNF-3beta) (Ciona intestinalis, UniProt Q4H3J7 131-225)
T1 sequence: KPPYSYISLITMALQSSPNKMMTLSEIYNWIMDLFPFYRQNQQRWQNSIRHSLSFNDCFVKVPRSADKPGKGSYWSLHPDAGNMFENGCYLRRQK
Assay: competition

B1: 27-52 Fox (distal) (dsDNA)
DNA 1: CTACACCCATATTTGAAGACCAAA
DNA 2: TTTGGTCTTCAAATATGGGTGTAG
- binding result: binds
